From paper PMC7586803, “Click‐Chemistry (CuAAC) Trimerization of an αvβ6 Integrin Targeting Ga‐68‐Peptide: Enhanced Contrast for in‐Vivo PET Imaging of Human Lung Adenocarcinoma Xenografts” (Chembiochem, 2020)
Like-named read-outs stand apart in the source and are kept apart here.

What was measured:
[1] = physchem; format: physicochemical; settings: pH 7.4
Procedure: To determine the n‐octanol/PBS distribution coefficients (log D 7.4), 650 μL octan‐1‐ol and 650 μL phosphate‐buffered saline (PBS, pH 7.4) were combined in a 1.5 mL Eppendorf tube. Approximately 0.5 MBq of the radiolabeled compound was added and vortexed for 2 min at 2850 rpm using a Vortex Genie2 (Scientific Industries). The samples were centrifuged (11 500 g, 10 min), after which 100 μL of the organic phase and 10 μL of the aqueous phase were taken out and the activities of the aliquots were quantified in a γ‐counter.

[2] = in vivo; settings: female, CB17 SCID, mouse, iv, 120 pmol, total radioactivity
Procedure: (§1) Mice were used for biodistribution or PET when tumors had grown to a diameter of 8–10 mm (4–5 weeks after inoculation). β6 Integrin immunohistochemistry (IHC) was performed as described before.37
(§2) For biodistribution studies, the mice were administered approximately 120 pmol (3–8 MBq, depending on radiolabeling yield and decay) of the radiopharmaceuticals into the tail vein and allowed to wake up with access to food and water. […] Animals were sacrificed 90 min after injection, blood was immediately taken from the heart with a syringe, and the organs of interest (heart, lung, liver, spleen, pancreas, stomach (empty), small intestine (empty), large intestine (empty), kidneys, adrenals, muscle, tongue, tumor, tail) were dissected. The activity in weighed tissue samples was quantified by using a γ‐counter. Injected dose per gram tissue (%ID/g) was calculated from the organ weights and counted activities.

[3] = target: T1, αvβ6 integrin (Homo sapiens, UniProt P06756+P18564); test: Solid-phase binding assay (ELISA on immobilized integrins), αvβ6
Procedure: (§3) After washing the plates with PBS‐T buffer (phosphate‐buffered saline/Tween20), free binding sites were blocked by incubation with TS‐B buffer (Tris‐saline/BSA). […] Surface‐bound integrin was detected by subsequent incubation with a specific primary antibody and a secondary peroxidase‐labeled antibody (anti‐mouse IgG‐POD, Sigma–Aldrich). After addition of the dye SeramunBlau (Seramun Diagnostic, Heidesee, Germany) and quenching of the reaction by addition of 3 M H2SO4, the absorbance at λ=450 nm was measured with a microplate reader (Tecan Genius, Männedorf, Switzerland). The IC50 value for each compound was determined in duplicate and the inhibition curves were analyzed by using OriginPro 9.0 software.

[4] = target: T2, αvβ8 integrin (Homo sapiens, UniProt P06756+P26012); test: Solid-phase binding assay (ELISA on immobilized integrins), αvβ8; settings: LAP(TGF-β)-coated plates, non-radioactive 69/71Ga complex, determined in duplicate, referenced to internal standard […], read-out: IC50 (95 % confidence interval) αvβ8
Procedure: as §3

[5] = test system: H2009 xenografted SCID mice; test: in vivo; settings: mouse
Procedure: as §1, §2

[6] = target: T2, αvβ8 integrin; settings: activity of the internal standard to which measured IC50 values were referenced; cited from earlier work
Description: (§4) Table 1 Integrin affinities (expressed as 50 % inhibition concentrations, IC50), IC50‐based selectivities, and octanol/PBS distribution coefficients (log D 7.4).

[7] = target: T1, αvβ6 integrin; settings: activity of the internal standard to which measured IC50 values were referenced; cited from earlier work
Description: as §4

[8] = %ID/g Tumor H2009 (tumor uptake)
[9] = tumor/organ ratio Heart (myocard)
[10] = tumor/organ ratio Large intestine (empty)
[11] = tumor/organ ratio Small intestine (empty)
[12] = tumor/organ ratio Stomach (empty)

T1 sequence (P06756 31-992 limits assumed): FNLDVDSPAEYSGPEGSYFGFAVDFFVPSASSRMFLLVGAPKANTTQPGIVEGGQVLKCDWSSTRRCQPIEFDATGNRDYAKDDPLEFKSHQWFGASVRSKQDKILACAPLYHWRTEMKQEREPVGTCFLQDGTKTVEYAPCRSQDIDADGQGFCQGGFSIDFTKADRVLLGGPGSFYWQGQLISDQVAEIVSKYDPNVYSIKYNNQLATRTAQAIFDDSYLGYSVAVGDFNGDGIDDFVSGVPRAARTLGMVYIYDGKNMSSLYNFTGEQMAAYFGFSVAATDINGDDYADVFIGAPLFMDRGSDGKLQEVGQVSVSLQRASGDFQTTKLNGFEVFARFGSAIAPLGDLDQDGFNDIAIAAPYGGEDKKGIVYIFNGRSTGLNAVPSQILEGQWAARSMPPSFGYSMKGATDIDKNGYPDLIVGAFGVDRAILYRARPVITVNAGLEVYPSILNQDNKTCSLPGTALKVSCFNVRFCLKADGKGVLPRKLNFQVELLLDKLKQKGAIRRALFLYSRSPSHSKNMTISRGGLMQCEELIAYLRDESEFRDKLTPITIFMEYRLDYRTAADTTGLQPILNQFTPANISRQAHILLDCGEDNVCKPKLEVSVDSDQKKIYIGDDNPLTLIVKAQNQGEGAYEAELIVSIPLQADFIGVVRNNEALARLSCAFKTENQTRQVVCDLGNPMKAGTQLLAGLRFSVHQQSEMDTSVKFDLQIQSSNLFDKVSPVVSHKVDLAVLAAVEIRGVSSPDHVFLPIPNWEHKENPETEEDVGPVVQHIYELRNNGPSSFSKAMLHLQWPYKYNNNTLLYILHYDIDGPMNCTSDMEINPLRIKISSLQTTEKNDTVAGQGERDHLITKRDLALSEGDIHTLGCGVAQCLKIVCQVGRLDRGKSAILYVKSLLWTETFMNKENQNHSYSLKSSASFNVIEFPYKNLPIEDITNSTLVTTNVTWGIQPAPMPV
T1 sequence (P18564 22-707 limits assumed): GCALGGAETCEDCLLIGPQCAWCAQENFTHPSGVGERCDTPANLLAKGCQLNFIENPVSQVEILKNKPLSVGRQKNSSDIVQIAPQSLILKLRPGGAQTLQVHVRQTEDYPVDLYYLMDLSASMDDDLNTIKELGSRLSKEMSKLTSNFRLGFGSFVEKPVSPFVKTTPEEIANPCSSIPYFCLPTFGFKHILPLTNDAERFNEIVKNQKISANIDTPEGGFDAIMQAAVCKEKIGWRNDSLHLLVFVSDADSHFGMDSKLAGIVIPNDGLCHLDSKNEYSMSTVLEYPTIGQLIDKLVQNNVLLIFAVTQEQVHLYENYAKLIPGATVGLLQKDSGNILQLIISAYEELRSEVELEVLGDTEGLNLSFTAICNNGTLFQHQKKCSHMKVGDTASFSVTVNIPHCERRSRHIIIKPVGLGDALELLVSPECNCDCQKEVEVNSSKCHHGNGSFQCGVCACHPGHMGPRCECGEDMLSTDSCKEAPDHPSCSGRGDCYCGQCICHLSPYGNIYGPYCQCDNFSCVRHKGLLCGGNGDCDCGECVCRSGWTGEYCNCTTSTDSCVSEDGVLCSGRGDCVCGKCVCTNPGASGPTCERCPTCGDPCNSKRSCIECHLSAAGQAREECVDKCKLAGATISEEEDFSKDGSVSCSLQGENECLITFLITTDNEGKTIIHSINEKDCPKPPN
T2 sequence (P06756 31-992 limits assumed): as the sequence (P06756 31-992 limits assumed) above
T2 sequence (P26012 43-684 limits assumed): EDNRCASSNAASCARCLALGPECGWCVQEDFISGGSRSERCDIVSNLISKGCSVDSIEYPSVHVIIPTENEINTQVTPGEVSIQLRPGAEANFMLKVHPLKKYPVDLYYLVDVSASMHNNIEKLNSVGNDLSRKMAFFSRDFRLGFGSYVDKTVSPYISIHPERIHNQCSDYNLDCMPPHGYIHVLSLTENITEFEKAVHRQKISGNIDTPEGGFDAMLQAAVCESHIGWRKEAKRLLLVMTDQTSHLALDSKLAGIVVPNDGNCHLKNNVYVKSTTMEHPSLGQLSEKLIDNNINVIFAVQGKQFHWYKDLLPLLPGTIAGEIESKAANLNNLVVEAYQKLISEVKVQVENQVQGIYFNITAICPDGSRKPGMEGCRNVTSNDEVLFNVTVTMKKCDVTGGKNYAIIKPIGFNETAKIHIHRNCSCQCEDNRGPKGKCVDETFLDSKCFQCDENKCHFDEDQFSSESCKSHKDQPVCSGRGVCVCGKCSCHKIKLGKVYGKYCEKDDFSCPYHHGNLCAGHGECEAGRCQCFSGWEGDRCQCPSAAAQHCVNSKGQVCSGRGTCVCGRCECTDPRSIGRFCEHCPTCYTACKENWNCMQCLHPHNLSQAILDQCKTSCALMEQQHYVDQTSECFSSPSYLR

Molecule | logD [1] | tissue uptake at 1.5 h ([2]; %ID/g Adrenals) | tissue uptake at 1.5 h ([2]; %ID/g Blood) | tissue uptake at 1.5 h ([2]; %ID/g Heart (myocard)) | tissue uptake at 1.5 h ([2]; %ID/g Kidneys) | tissue uptake at 1.5 h ([2]; %ID/g Large intestine (empty)) | tissue uptake at 1.5 h ([2]; %ID/g Liver) | tissue uptake at 1.5 h ([2]; %ID/g Lung) | tissue uptake at 1.5 h ([2]; %ID/g Muscle) | tissue uptake at 1.5 h ([2]; %ID/g Pancreas) | tissue uptake at 1.5 h ([2]; %ID/g Small intestine (empty)) | tissue uptake at 1.5 h ([2]; %ID/g Spleen) | tissue uptake at 1.5 h ([2]; %ID/g Stomach (empty)) | tissue uptake at 1.5 h ([2]; %ID/g Tongue) | tissue uptake at 1.5 h [2, 8] | tissue to tissue ratio at 1.5 h ([2]; tumor/organ ratio Adrenals) | tissue to tissue ratio at 1.5 h ([2]; tumor/organ ratio Blood) | tissue to tissue ratio at 1.5 h [2, 9] | tissue to tissue ratio at 1.5 h ([2]; tumor/organ ratio Kidneys) | tissue to tissue ratio at 1.5 h [2, 10] | other results
N=C(N)NCCC[C@@H]1NC(=O)CC[C@@H](C(=O)NCCCC[C@H](NC(=O)c2ccc(NC(=O)CN3CCN(CC(=O)O)CCN(CC(=O)O)CC3)cc2)C(N)=O)NC(=O)[C@H](C2CCCCC2)NC(=O)[C@H](CC(=O)O)NC(=O)CNC1=O [^68Ga‐NOTA‐SDM17, metal not drawn] | -3.91 ± 0.07 | 0.28 ± 0.09 %ID/g | 0.64 ± 0.05 %ID/g | 0.2 ± 0.03 %ID/g | 3.74 ± 0.73 %ID/g | 0.22 ± 0.03 %ID/g | 0.33 ± 0.04 %ID/g | 0.47 ± 0.03 %ID/g | 0.07 ± 0.01 %ID/g | 0.15 ± 0.02 %ID/g | 0.22 ± 0.01 %ID/g | 0.32 ± 0.06 %ID/g | 0.34 ± 0.06 %ID/g | 0.28 ± 0.03 %ID/g | 0.66 ± 0.03 %ID/g | 2.5 ± 0.7 | 1 ± 0.1 | 3.3 ± 0.6 | 0.2 | 3.1 ± 0.4 | tissue to tissue ratio at 1.5 h ([2]; tumor/organ ratio Liver): 2 ± 0.3; tissue to tissue ratio at 1.5 h ([2]; tumor/organ ratio Lung): 1.4 ± 0.1; tissue to tissue ratio at 1.5 h ([2]; tumor/organ ratio Muscle): 9.7 ± 0.7; tissue to tissue ratio at 1.5 h ([2]; tumor/organ ratio Pancreas): 4.4 ± 0.8; tissue to tissue ratio at 1.5 h [2, 11]: 3 ± 0.1; tissue to tissue ratio at 1.5 h ([2]; tumor/organ ratio Spleen): 2.1 ± 0.4; tissue to tissue ratio at 1.5 h [2, 12]: 2 ± 0.4; tissue to tissue ratio at 1.5 h ([2]; tumor/organ ratio Tongue): 2.4 ± 0.3
N=C(N)NCCC[C@@H]1NC(=O)CC[C@@H](C(=O)NCCCC[C@H](NC(=O)CCc2cn(CCCNC(=O)CCP(=O)(O)CN3CCN(CP(=O)(O)CCC(=O)NCCCn4cc(CCC(=O)N[C@@H](CCCCNC(=O)[C@@H]5CCC(=O)N[C@@H](CCCNC(=N)N)C(=O)NCC(=O)N[C@@H](CC(=O)O)C(=O)N[C@@H](C6CCCCC6)C(=O)N5)C(N)=O)nn4)CCN(CP(=O)(O)CCC(=O)NCCCn4cc(CCC(=O)N[C@@H](CCCCNC(=O)[C@@H]5CCC(=O)N[C@@H](CCCNC(=N)N)C(=O)NCC(=O)N[C@@H](CC(=O)O)C(=O)N[C@@H](C6CCCCC6)C(=O)N5)C(N)=O)nn4)CC3)nn2)C(N)=O)NC(=O)[C@H](C2CCCCC2)NC(=O)[C@H](CC(=O)O)NC(=O)CNC1=O [^68Ga‐TRAP(SDM17)3, metal not drawn] | -4.08 ± 0.07 | 0.16 ± 0.02 %ID/g | 0.19 ± 0.05 %ID/g | 0.1 ± 0.03 %ID/g | 21.8 ± 2.7 %ID/g | 0.41 ± 0.09 %ID/g | 0.34 ± 0.21 %ID/g | 0.71 ± 0.15 %ID/g | 0.1 ± 0.02 %ID/g | 0.07 ± 0.01 %ID/g | 0.31 ± 0.08 %ID/g | 0.58 ± 0.11 %ID/g | 1.04 ± 0.22 %ID/g | 0.35 ± 0.09 %ID/g | 2.06 ± 0.34 %ID/g | 12.5 ± 1.6 | 11.2 ± 1.9 | 21.7 ± 3 | 0.1 | 5.1 ± 1.2 | IC50 ([3]; ELISA, LAP(TGF-β)-coated plates, non-radioactive 69/71Ga complex, determined in duplicate, referenced to internal standard […], read-out: IC50 (95 % confidence interval) αvβ6): 0.26 nM; Selectivity for αvβ6 over αvβ8 ([3]; IC50-based selectivity factor (IC50 αvβ8 / IC50 αvβ6)): 662; IC50 [4]: 172 nM; higher tumor uptake than monomer [5]: threefold; tissue to tissue ratio at 1.5 h ([2]; tumor/organ ratio Liver): 8.7 ± 5.2; tissue to tissue ratio at 1.5 h ([2]; tumor/organ ratio Lung): 3 ± 0.4; tissue to tissue ratio at 1.5 h ([2]; tumor/organ ratio Muscle): 22.3 ± 6.6; tissue to tissue ratio at 1.5 h ([2]; tumor/organ ratio Pancreas): 29.7 ± 3; tissue to tissue ratio at 1.5 h [2, 11]: 7 ± 1.7; tissue to tissue ratio at 1.5 h ([2]; tumor/organ ratio Spleen): 3.6 ± 0.6; tissue to tissue ratio at 1.5 h [2, 12]: 2 ± 0.4; tissue to tissue ratio at 1.5 h ([2]; tumor/organ ratio Tongue): 6.2 ± 1.8
RTDLDSLRT |  |  |  |  |  |  |  |  |  |  |  |  |  |  |  |  |  |  |  |  | IC50 [6]: 100 nM; IC50 [7]: 33 nM
